Assay results: PMC5389708 (Nucleic Acids Research, 2017)

Key:
[1] = molecular target: chimpanzee APOBEC3C (chimpanzee); assay: SEC
[2] = molecular target: chimpanzee APOBEC3C (chimpanzee); assay: cross-linking
[3] = molecular target: chimpanzee APOBEC3C S188I (chimpanzee); assay: cross-linking
cross-linking = molecular target: the molecule itself; assay: cross-linking
SEC = molecular target: the molecule itself; assay: SEC

Molecule | stoichiometry N (cross-linking) | also measured
chimpanzee APOBEC3C (enzyme) | – | stoichiometry N [1]: 2; stoichiometry N [2]: 2
chimpanzee APOBEC3C S188I (enzyme) | – | stoichiometry N [3]: 2
gorilla APOBEC3C (enzyme) MNPQIRNPMKAMYPGTFYFQFKNLWEANDRNETWLCFTVEGIKRRSVVSWKTGVFRNQVDSETHCHAERCFLSWFCDDILSPNTNYQVTWYTSWSPCPECAGEVAEFLARHSNVKLTIFTARLYYFQYPCYQVGLRSLSQEGVAVEIMDYEDFKYCWENFVYNDNEPFKPWKGLKTNFRLLKRRLRESLQ | 2 | –
human APOBEC3C S188I (enzyme) MNPQIRNPMKAMYPGTFYFQFKNLWEANDRNETWLCFTVEGIKRRSVVSWKTGVFRNQVDSETHCHAERCFLSWFCDDILSPNTKYQVTWYTSWSPCPDCAGEVAEFLARHSNVNLTIFTARLYYFQYPCYQEGLRSLSQEGVAVEIMDYEDFKYCWENFVYNDNEPFKPWKGLKTNFRLLKRRLREILQ | 2 | –
human APOBEC3C N115K (enzyme) MNPQIRNPMKAMYPGTFYFQFKNLWEANDRNETWLCFTVEGIKRRSVVSWKTGVFRNQVDSETHCHAERCFLSWFCDDILSPNTKYQVTWYTSWSPCPDCAGEVAEFLARHSNVKLTIFTARLYYFQYPCYQEGLRSLSQEGVAVEIMDYEDFKYCWENFVYNDNEPFKPWKGLKTNFRLLKRRLRESLQ | – | stoichiometry N (SEC): 2
gorilla APOBEC3C S188I (enzyme) MNPQIRNPMKAMYPGTFYFQFKNLWEANDRNETWLCFTVEGIKRRSVVSWKTGVFRNQVDSETHCHAERCFLSWFCDDILSPNTNYQVTWYTSWSPCPECAGEVAEFLARHSNVKLTIFTARLYYFQYPCYQVGLRSLSQEGVAVEIMDYEDFKYCWENFVYNDNEPFKPWKGLKTNFRLLKRRLREILQ | 2 | –
human APOBEC3C S188I/N115K (enzyme) MNPQIRNPMKAMYPGTFYFQFKNLWEANDRNETWLCFTVEGIKRRSVVSWKTGVFRNQVDSETHCHAERCFLSWFCDDILSPNTKYQVTWYTSWSPCPDCAGEVAEFLARHSNVKLTIFTARLYYFQYPCYQEGLRSLSQEGVAVEIMDYEDFKYCWENFVYNDNEPFKPWKGLKTNFRLLKRRLREILQ | 2 | –
gorilla APOBEC3C K115N (enzyme) MNPQIRNPMKAMYPGTFYFQFKNLWEANDRNETWLCFTVEGIKRRSVVSWKTGVFRNQVDSETHCHAERCFLSWFCDDILSPNTNYQVTWYTSWSPCPECAGEVAEFLARHSNVNLTIFTARLYYFQYPCYQVGLRSLSQEGVAVEIMDYEDFKYCWENFVYNDNEPFKPWKGLKTNFRLLKRRLRESLQ | 2 | –
